Measurements from the RNAGym collection of RNA variant scans (doi:10.7554/elife.80360).

B1: HDV Ribozyme (parent)
chain: GGCCGGCAUGGUCCCAGCCUCCUCGCUGGCGCCGGCUGGGCAACAUUCCGAGGGGACCGUCCCCUCGGUAAUGGCGAAUGGGACCCA

Variants of: B1
Test: self-cleavage, relative activity (ratio to wild type); higher = more cleavage; co-transcriptional

Going from U37G C66U to U37A G76A, the self-cleavage falls from 0.196 to 0.172.

Going from U37A G76C to U37A G50A, the self-cleavage falls from 0.203 to 0.0361.

Going from U37C C64A to G38C A71U, the self-cleavage falls from 0.831 to 0.0449.

First: G38C A71G
Second: G38C C44U
The self-cleavage of the first is higher: 0.166 for the first, 0.104 for the second.

Going from U37G C57G to C36U U46G, the self-cleavage rises from 0.145 to 0.504.

Going from C36U G76A to G38A U47G, the self-cleavage falls from 0.697 to 0.116.

Going from G38A U47A to U37A U65A, the self-cleavage rises from 0.0594 to 0.122.

Compared with U37C G38C, U37A A43U is lower in self-cleavage: 0.237 for the first, 0.0437 for the second.

Compared with U37A A43C, U37A A43G is lower in self-cleavage: 0.0723 for the first, 0.0554 for the second.

First: G38A A43U
Second: G38A G68U
The self-cleavage of the first is lower: 0.111 for the first, 0.18 for the second.

Compared with G38A G68C, U37A U72G is higher in self-cleavage: 0.197 for the first, 0.302 for the second.

First: G38A G67A
Second: G38A G67U
The self-cleavage of the first is lower: 0.0665 for the first, 0.135 for the second.

Compared with G38A C44G, U37C U69C is higher in self-cleavage: 0.0449 for the first, 0.89 for the second.

Compared with U37C G68A, G38A U46C is lower in self-cleavage: 0.864 for the first, 0.138 for the second.

Going from U37A G82U to U37A G59U, the self-cleavage rises from 0.166 to 0.181.

Compared with U37C A70C, U37G U65A is lower in self-cleavage: 1.04 for the first, 0.101 for the second.

Going from G38A C48G to U37G G54C, the self-cleavage falls from 0.148 to 0.0594.

Going from U37G G54U to G38A A71U, the self-cleavage falls from 0.135 to 0.102.

First: U37G G74A
Second: G38A G39U
The self-cleavage of the first is higher: 0.229 for the first, 0.0665 for the second.

Going from U37G U47G to U37G G73U, the self-cleavage rises from 0 to 0.0923.

Going from U37A C84U to U37G C64U, the self-cleavage falls from 0.116 to 0.

Going from U37G C61G to U37G C61A, the self-cleavage rises from 0 to 0.0875.

First: U37C U47A
Second: G38A C64A
The self-cleavage of the first is higher: 0.864 for the first, 0.0678 for the second.

Compared with G38A C64U, G38A C62U is lower in self-cleavage: 0.225 for the first, 0.153 for the second.

Compared with G38A C62G, U37C C48U is higher in self-cleavage: 0.298 for the first, 1.14 for the second.

Compared with U37G C48G, U37A G80C is higher in self-cleavage: 0.111 for the first, 0.163 for the second.

First: U37A A70G
Second: C36U U37A
The self-cleavage of the first is higher: 0.214 for the first, 0.0978 for the second.

Compared with C36U U37G, G38A G59A is lower in self-cleavage: 0.166 for the first, 0.0801 for the second.

Compared with U37G G39A, U37A G81A is higher in self-cleavage: 0.0811 for the first, 0.166 for the second.

Compared with U37C C66G, C36U G80A is lower in self-cleavage: 0.932 for the first, 0.0923 for the second.

Going from C36U G80C to U37G G53C, the self-cleavage rises from 0.12 to 0.145.

First: U37A C61G
Second: U37A C61U
The self-cleavage of the first is lower: 0.151 for the first, 0.277 for the second.

First: U37A
Second: U37C
The self-cleavage of the first is lower: 0.216 for the first, 1.03 for the second.

Compared with U37G, U37A C57G is higher in self-cleavage: 0.131 for the first, 0.213 for the second.

Compared with U37A C86G, U37C A83G is higher in self-cleavage: 0.0875 for the first, 0.76 for the second.

Going from U37A C41G to G38C A78G, the self-cleavage falls from 0.0723 to 0.0639.

First: U37G G82A
Second: U37G G67A
The self-cleavage of the first is higher: 0.158 for the first, 0.0692 for the second.

First: U37G A78G
Second: G38A A83C
The self-cleavage of the first is lower: 0 for the first, 0.151 for the second.

Compared with G38A A83G, U37G U60C is higher in self-cleavage: 0.142 for the first, 0.256 for the second.

Going from U37G C63A to C36U U69C, the self-cleavage rises from 0.123 to 0.801.

Going from U37C A42U to U37A C44A, the self-cleavage rises from 0.295 to 0.364.

Compared with U37A C44U, G38C A77U is higher in self-cleavage: 0.0386 for the first, 0.128 for the second.

Going from G38C A77C to G38A U69C, the self-cleavage rises from 0.177 to 0.31.

Compared with U37C G39C, U37C G39A is lower in self-cleavage: 0.177 for the first, 0.0997 for the second.

First: G38A C75A
Second: U37C C62G
The self-cleavage of the first is higher: 0.115 for the first, 0.0723 for the second.

Going from U37C C62U to G38A G80C, the self-cleavage falls from 1.26 to 0.117.

First: G38C C49G
Second: G38A U79C
The self-cleavage of the first is lower: 0.156 for the first, 0.161 for the second.

Going from U37C C41G to U37C G67U, the self-cleavage falls from 1.11 to 0.974.

Going from U37C G67C to U37C A78U, the self-cleavage falls from 0.989 to 0.161.

Going from U37C A78C to U37C A78G, the self-cleavage rises from 0.196 to 0.475.

Going from G38C A70G to G38A G53A, the self-cleavage rises from 0.0978 to 0.113.

Compared with U37G G38A, U37G G38U is higher in self-cleavage: 0.111 for the first, 0.155 for the second.

Compared with U37A U47C, U37C U79C is lower in self-cleavage: 0.289 for the first, 0.193 for the second.

Compared with U37A U60G, U37C C49G is higher in self-cleavage: 0.192 for the first, 1.21 for the second.

Compared with C36U G74C, C36U G74A is lower in self-cleavage: 0.253 for the first, 0.205 for the second.

First: G38A A70U
Second: G38A A70C
The self-cleavage of the first is lower: 0.148 for the first, 0.177 for the second.

First: U37G C62G
Second: G38A C63U
The self-cleavage of the first is lower: 0.0791 for the first, 0.0923 for the second.

Compared with G38C A43C, U37C A87U is higher in self-cleavage: 0.26 for the first, 1.14 for the second.

Compared with U37G C85G, G38C C41U is higher in self-cleavage: 0.201 for the first, 1.08 for the second.

Compared with G38C C41A, U37A A51U is lower in self-cleavage: 0.612 for the first, 0 for the second.

First: G38A C85U
Second: G38A C85A
The self-cleavage of the first is higher: 0.128 for the first, 0.104 for the second.

Compared with G38A U65C, G38A U65G is higher in self-cleavage: 0.117 for the first, 0.181 for the second.

First: U37C U65G
Second: U37C G76U
The self-cleavage of the first is lower: 0.906 for the first, 1.3 for the second.

First: U37G A45C
Second: U37A C64A
The self-cleavage of the first is lower: 0 for the first, 0.0723 for the second.

Going from U37C A51G to U37G A42U, the self-cleavage falls from 0.966 to 0.

Going from U37G A42C to U37G G59A, the self-cleavage falls from 0.308 to 0.

Compared with U37G G59U, U37C G55A is higher in self-cleavage: 0.256 for the first, 1 for the second.

Compared with G38A C84G, G38A C84U is lower in self-cleavage: 0.257 for the first, 0.109 for the second.

First: U37A G55A
Second: U37C A43U
The self-cleavage of the first is higher: 0.283 for the first, 0.172 for the second.

Compared with U37A A45C, U37A A45U is higher in self-cleavage: 0.0707 for the first, 0.175 for the second.

Going from U37C G82A to U37C G82C, the self-cleavage rises from 0.173 to 0.268.

Going from U37C G82U to U37G A56G, the self-cleavage falls from 0.399 to 0.0665.

First: U37C C57G
Second: U37A G40A
The self-cleavage of the first is higher: 1.1 for the first, 0.305 for the second.

First: U37G G76A
Second: G38A C61G
The self-cleavage of the first is higher: 0.185 for the first, 0.138 for the second.

Going from U37C C61G to U37C C61A, the self-cleavage rises from 0.816 to 1.2.

Compared with U37A G74C, U37G C84U is lower in self-cleavage: 0.212 for the first, 0.111 for the second.

First: U37C C86G
Second: U37C C86U
The self-cleavage of the first is lower: 0.956 for the first, 1.06 for the second.

Going from U37A G68U to U37A U79A, the self-cleavage rises from 0.0845 to 0.246.

First: U37G A77U
Second: U37A A83C
The self-cleavage of the first is higher: 0.138 for the first, 0.0378 for the second.

Compared with U37A A83G, U37A A83U is lower in self-cleavage: 0.115 for the first, 0.104 for the second.

First: U37C G80C
Second: U37C G80A
The self-cleavage of the first is higher: 0.288 for the first, 0.267 for the second.

First: C36U U47A
Second: G38C A42G
The self-cleavage of the first is higher: 0.481 for the first, 0.0449 for the second.

Compared with G38A C66A, G38A C49U is higher in self-cleavage: 0.0992 for the first, 0.119 for the second.

U37C G74A showed a self-cleavage of 0.196.
